Source: article PMC5300155, “Biochemical and biophysical investigations of the interaction between human glucokinase and pro-apoptotic BAD” (PLoS ONE, 2017)
Entries after “also recorded” stand apart in the source; their conditions may differ.

Columns and labels:
[1] = molecular target: T1, GCK (Homo sapiens, UniProt P35557); assay: Fluorescence polarization, binding of fluorescent BH3 peptides to GCK; conditions: phosphorylation at position of Ser-118; trifluoroethanol 20–40%; S1 Fig: 34 μM f-pBH3, 40% trifluoroethanol
T1 construct: hexahistidine (N); made in house; host or cells: glucokinase auxotroph BM5340(DE3)
T1 sequence (P35557 1-465): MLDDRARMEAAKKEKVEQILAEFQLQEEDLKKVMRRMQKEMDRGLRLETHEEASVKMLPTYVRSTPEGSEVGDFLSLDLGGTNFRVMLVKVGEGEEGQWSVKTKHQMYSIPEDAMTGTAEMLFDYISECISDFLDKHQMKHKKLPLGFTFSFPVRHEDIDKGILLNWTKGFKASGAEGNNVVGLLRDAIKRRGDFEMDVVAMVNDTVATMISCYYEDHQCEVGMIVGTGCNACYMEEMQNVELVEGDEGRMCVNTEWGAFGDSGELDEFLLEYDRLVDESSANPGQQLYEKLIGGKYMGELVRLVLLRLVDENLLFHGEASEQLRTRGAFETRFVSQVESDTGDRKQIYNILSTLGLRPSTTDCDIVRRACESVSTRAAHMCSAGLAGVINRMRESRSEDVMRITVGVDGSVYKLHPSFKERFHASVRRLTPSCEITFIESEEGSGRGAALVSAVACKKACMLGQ
Protocol: (§1) Recombinant human pancreatic GCK containing an N-terminal hexahistidine tag was produced in the glucokinase auxotroph BM5340(DE3) and purified using a previously described procedure. TEV protease was expressed as a GST-fusion protein from a pGEX plasmid encoding the S219V variant, provided by David Waugh (Addgene plasmid 8827). Expression was induced with IPTG (1 mM) for 4 h at 30°C. Cell pellets were resuspended in Tris buffer (50 mM, pH 8.0) containing NaCl (100 mM), glycerol (10% v/v), benzamidine (1 mM) and dithiothreitol (10 mM) and lysed via French Press. Polyethyleneimine (0.1%) was added to the lysate and protein was purified on a glutathione-affinity column (GSTrap, GE Sciences). TEV protease was flash frozen and stored at -80°C for up to 1 month.
A fluorescence polarization assay developed by Zhang, et al. was utilized to measure interactions between BAD and its binding partners. Two 21-residue FITC-labeled peptides containing the BH3 domain of BAD were synthesized and purified to >95% by Peptide2.0 (f-BH3 = NLWAAQRYGRELRRMSDK(FITC)FVD; f-pBH3 = NLWAAQRYGRELRRM(p)SDK(FITC) FVD). Polarization was measured at room temperature with an excitation wavelength of 485 nm and an emission wavelength of 530 nm using a SpectraMax M5 microplate reader (Molecular Devices). […]

[2] = molecular target: T2, Bcl-xL (Homo sapiens, UniProt Q07817, DEL45-84); assay: Fluorescence polarization competition with f-BH3 for binding to Bcl-xL; conditions: for IC50: competitor 0–50 μM, room temperature, 15 min
T2 construct: made in house
Protocol: Exon 1 of human bcl-xl lacking the C-terminal residues 189–233 was obtained from Stanley Korsmeyer (Addgene plasmid 8755) and site-directed mutagenesis was performed to create the Δ45–84, Δ210–233 variant. Bcl-xL was expressed and purified using a modified procedure described previously. Briefly, Bcl-xL was purified by nickel affinity chromatography and dialyzed against potassium phosphate buffer (20 mM, pH 7.4) containing NaCl (50 mM), EDTA (1 mM), and DTT (10 mM). Protein was applied to a Superdex 200 10/30 HR size-exclusion column, at a flow rate of 0.02 mL/min, to remove aggregate and oligomers prior to binding assays.
A fluorescence polarization assay developed by Zhang, et al. was utilized to measure interactions between BAD and its binding partners. Two 21-residue FITC-labeled peptides containing the BH3 domain of BAD were synthesized and purified to >95% by Peptide2.0 (f-BH3 = NLWAAQRYGRELRRMSDK(FITC)FVD; f-pBH3 = NLWAAQRYGRELRRM(p)SDK(FITC) FVD). Polarization was measured at room temperature with an excitation wavelength of 485 nm and an emission wavelength of 530 nm using a SpectraMax M5 microplate reader (Molecular Devices). Experiments to measure binding constants of the fluorescent peptides to Bcl-xL or GCK were performed in black 96-well plates. Each well contained 15 nM peptide, 60 μL BAD buffer (0.1 M Tris, 0.1 M KCl, 0.5 M arginine, 2.5 mM CHAPS, 5 mM TCEP, 10% glycerol, pH 8.5) and variable concentrations of Bcl-xL (0–2.25 μM) or GCK (0–400 μM) in assay buffer (20 mM phosphate buffer, pH 7.4, 1 mM EDTA, 50 mM NaCl, 10 mM DTT) in a final volume of 120 μL. High GCK concentrations were chosen in an effort to detect a signal indicating a binding event. Assays containing GCK also contained 250 mM glucose. […] Plates were incubated at room temperature in the dark for 15 min prior to polarization measurements.

[3] = Circular dichroism spectroscopy (secondary structure); assay type: physicochemical; conditions: relative to (unmodified) BAD-GST, 25°C, pH 7.8
Protocol: Proteins were dialyzed overnight into potassium phosphate buffer (50 mM, pH 7.8) containing KCl (50 mM), glycerol (5% v/v), and TCEP (4 mM). CD spectra were recorded on an AVIV 202 CD spectrometer at 25°C with protein concentrations ranging from 3–15 μM. Spectra were recorded from 200–260 nm in 10 mm pathlength cuvettes using a 1 nm step resolution and 3 s integration time. Three scans were recorded per sample, averaged, and baseline subtracted with appropriate buffer controls. CD signals were converted to molar ellipticity and deconvoluted using CDPro Software.

[4] = system: GCK; conditions: rabbit reticulocyte lysates; ref [8]; cited from earlier work
From the text: Several lines of evidence support a direct interaction between GCK and BAD. […] Kinetic assays re ... || The first indication of a putative interaction between full-length BAD and GCK came from the observation that both proteins co-localize with one another in a macromolecular complex purified from mouse hepatocyte mitochondrial extracts. […] In contrast to these experiments, our study utilizes active, highly purified homogeneous preparations of both proteins. The biochemical and biophysical e ...

[5] = system: BAD-deficient islets; conditions: ref [8]; cited from earlier work
From the text: The mitochondrial complex fails to form in the absence of BAD, resulting in reduced glucose-driven oxygen consumption and impaired GSIS in β-cells. […] In hepatocytes, BAD deficiency results in insulin resis ...

[6] = molecular target: T3, human pancreatic GCK (Homo sapiens, UniProt P35557); assay: GCK activity, G6PDH-linked assay (lab's routine assay, 25°C); assay type: biochemical
T3 construct: hexahistidine (N); made in house; host or cells: glucokinase auxotroph BM5340(DE3)
T3 sequence (P35557 1-465): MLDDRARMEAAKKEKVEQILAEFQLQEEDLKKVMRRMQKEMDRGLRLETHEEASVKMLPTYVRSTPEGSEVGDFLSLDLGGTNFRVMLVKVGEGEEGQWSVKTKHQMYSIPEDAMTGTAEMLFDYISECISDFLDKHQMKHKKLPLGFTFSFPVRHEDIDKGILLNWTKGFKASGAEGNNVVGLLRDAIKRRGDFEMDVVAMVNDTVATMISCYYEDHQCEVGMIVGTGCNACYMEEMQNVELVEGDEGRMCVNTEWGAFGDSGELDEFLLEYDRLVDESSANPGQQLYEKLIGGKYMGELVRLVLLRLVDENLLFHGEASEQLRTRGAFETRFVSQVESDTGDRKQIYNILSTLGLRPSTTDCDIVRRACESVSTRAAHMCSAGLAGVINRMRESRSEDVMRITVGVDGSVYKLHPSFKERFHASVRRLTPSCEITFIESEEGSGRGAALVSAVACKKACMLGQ
Protocol: as §1
GCK activity was assayed using a glucose 6-phosphate dehydrogenase (G6PDH)-linked assay at 25°C. 50 nM GCK was assayed in buffer containing HEPES (100 mM, pH 7.4), KCl (50 mM), NADP^+ (0.5 mM), DTT (10 mM), MgCl2 (7 mM), G6PDH (1.5 U) and glucose (0–100 mM) in a total volume of […]. Addition of ATP (6 mM) initiated the reaction. Production of NADPH was measured at 340 nm. To determine the effect of BAD on GCK activity, 5 μL of BAD or buffer control was added to the reaction in a final volume of 100 μL. K0.5 values were determined by fitting to the Hill equation. The effect of BAD on GCK activity is reported as the percent rate increase at individual glucose concentrations, calculated as the average of a minimum of four rates of BAD-containing assays divided by the average of rates of BAD buffer-containing assays. The results represent the average of at least three independent preparations of pure BAD.

[7] = Isoelectric focusing of phosphorylated BAD-GST; assay type: physicochemical; conditions: IEF, IPG strips pH 4–7; four distinct populations
Protocol: Recombinant BAD-GST was phosphorylated with PKAc after refolding. 1 unit PKAc was added to 10 units BAD-GST and the reaction was dialyzed against BAD refolding buffer (0.1 M Tris, 0.1 M KCl, 0.2 M arginine, 2.5 mM CHAPS, 5 mM DTT, 10% glycerol, pH 8.5) containing ATP (3 mM) and MgCl2 (20 mM). Reactions were carried out at 4°C overnight. PKAc and excess ATP were removed from BAD-GST via glutathione-affinity chromatography (GSTrap, GE Healthcare). The extent of phosphorylation was established via mass spectrometry and 2D-IEF-SDS-PAGE using ReadyStrip IPG strips (Bio-Rad) with a pH range of 4–7. pET28badgst was subjected to site-directed mutagenesis to remove sites of phosphorylation (Ser-to-Ala) or to incorporate phosphorylation mimics (Ser-to-Asp) using the QuikChange™ Site-directed mutagenesis kit (Stratagene).

[8] = molecular target: T3, human pancreatic GCK; assay: Analytical ultracentrifugation sedimentation velocity of equimolar mixtures with GCK; assay type: binding; conditions: equimolar mixture, BAD buffer pH 8.5, 20°C, 50,000 x g
Protocol: (§2) Sedimentation velocity experiments were conducted with an Optima XLI Ultracentrifuge (Beckman Coulter) using a four-hole rotor with three 420 μL samples in standard double-sector Epon centerpieces equipped with sapphire windows. Absorbance and interference data were collected simultaneously. Size-exclusion purified proteins were concentrated to OD280 nm = 0.3–1.0 prior to centrifugation. For complex formation, proteins were mixed in a 1:1 molar ratio in BAD buffer (0.1 M Tris, 0.1 M KCl, 0.5 M arginine, 2.5 mM CHAPS, 5 mM TCEP, 10% glycerol, pH 8.5) and incubated on ice 30 min prior to the start of the experiment. Experiments were carried out at 20°C and 50,000 x g. Data were analyzed with Ultrascan III software using a minimum of 70 scans per sample for analysis. Van Holde-Weischet analysis was performed to obtain S20,W values.

[9] = Analytical ultracentrifugation sedimentation velocity (oligomerization, shape); assay type: physicochemical; conditions: sedimentation velocity, 20°C, 50,000 x g; unity = compact sphere
Protocol: as §2

T2 sequence (Q07817 with tags, fused parts or gaps DEL45-84): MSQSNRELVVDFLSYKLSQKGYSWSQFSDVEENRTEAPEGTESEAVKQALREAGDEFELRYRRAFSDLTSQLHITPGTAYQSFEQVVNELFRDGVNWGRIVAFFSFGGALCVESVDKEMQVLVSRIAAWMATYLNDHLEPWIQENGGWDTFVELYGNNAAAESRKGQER

Molecule: NLWAAQRYGRELRRM(p)SDK(FITC) FVD [f-pBH3, 21-residue FITC-labeled phosphorylated peptide containing the BH3 domain of BAD]
- Binding to GCK, phosphorylated fluorescent peptide / trifluoroethanol [1]: does not affect f-pBH3 binding to GCK

B1: BAD: BAD following cleavage and removal of the GST tag (protein)
chain: MFQIPEFEPSEQEDSSSAERGLGPSPAGDGPSGSGKHHRQAPGLLWDASHQQEQPTSSSHHGGAGAVEIRSRHSSYPAGTEDDEGMGEEPSPFRGRSRSAPPNLWAAQRYGRELRRMSDEFVDSFKKGLPRPKSAGTATQMRQSSSWTRVFQSWWDRNLGRGSSAPSQ
modifications: left off: His6, N-terminal, state not stated | GST, C-terminal, kept
- IC50 ([2]; 200 nM f-BH3, 50 nM Bcl-xL): 440 nM
- CD comparison (in words) [3]: nearly identical
- Coimmunoprecipitation with GCK [4]: co-immunoprecipitates with GCK; also recorded: can coimmunoprecipitate with GCK
- Effect on impaired insulin response or GSIS of BAD-deficient islets [5]: restores GSIS
- Increase in GCK activity, GST tag removed ([6]; 0.5, 0.78 and 1.0 mM glucose, data not shown): 7–12%

B2: phosphorylated BAD-GST: BAD-GST phosphorylated in vitro with PKAc at S75, S99, S118 (protein)
chain: MFQIPEFEPSEQEDSSSAERGLGPSPAGDGPSGSGKHHRQAPGLLWDASHQQEQPTSSSHHGGAGAVEIRSRHSSYPAGTEDDEGMGEEPSPFRGRSRSAPPNLWAAQRYGRELRRMSDEFVDSFKKGLPRPKSAGTATQMRQSSSWTRVFQSWWDRNLGRGSSAPSQ
modifications: phosphoserine at 75, 99 and 118 (all three sites found by mass spectrometry; four populations by isoelectric focusing); left off: His6, N-terminal, state not stated | GST, C-terminal, kept
notes: BAD-GST phosphorylated in vitro with PKAc at S75, S99, S118
- pI values [7]: 4–7
- IC50 ([2]; 200 nM f-BH3, 50 nM Bcl-xL): ≥ 1600 nM
- Competition with f-BH3 binding to Bcl-xL (in words) ([2]; 200 nM f-BH3, 50 nM Bcl-xL, GST up to 10 μM, BAD-GST phosphorylated by PKA): abrogrates the protein’s ability to compete with f-BH3
- Ability to interact with Bcl-xL (in words) ([2]; ITC and fluorescence polarization assays): significantly impaired in their ability to interact with Bcl-xL
- CD comparison (in words) [3]: a higher degree of α-helical content compared to unmodified BAD-GST
- Complex with GCK by analytical ultracentrifugation [8]: no evidence of a higher molecular weight complex
- Increase in GCK activity over unmodified BAD-GST ([6]; 1.0 mM glucose, BAD-GST phosphorylated by PKA): 5%
- Hill coefficient H of GCK in presence of pBAD-GST ([6]; Fig 6A, GCK alone: H = 1.7): 1.6
- K0.5 (glucose) of GCK in presence of pBAD-GST ([6]; Fig 6A, GCK alone: K0.5 = 8.6 mM, Hill equation fit): 8.8 mM
- kcat of GCK in presence of pBAD-GST ([6]; Fig 6A, GCK alone: kcat = 38.1 s^-1): 38.4 s^-1
- Difference in effect on GCK activity, phosphorylated versus unmodified BAD-GST ([6]; all glucose concentrations other than 1.0 mM): no statistical difference
- Maximum increase in GCK activity ([6]; glucose below K0.5, phosphorylated BAD > 2 μM): 15%
- Frictional ratio f/f0 [9]: 3.1
